Earlier results on 1 substance are cited in publication PMC10303925.

Data set [1] addresses MLPH (Homo sapiens) (UniProt Q9BV36).
The target in data set [2] is SLP2-A (Homo sapiens) (UniProt Q9HCH5).
Sequence of UniProt Q9HCH5 (Q9HCH5 whole entry): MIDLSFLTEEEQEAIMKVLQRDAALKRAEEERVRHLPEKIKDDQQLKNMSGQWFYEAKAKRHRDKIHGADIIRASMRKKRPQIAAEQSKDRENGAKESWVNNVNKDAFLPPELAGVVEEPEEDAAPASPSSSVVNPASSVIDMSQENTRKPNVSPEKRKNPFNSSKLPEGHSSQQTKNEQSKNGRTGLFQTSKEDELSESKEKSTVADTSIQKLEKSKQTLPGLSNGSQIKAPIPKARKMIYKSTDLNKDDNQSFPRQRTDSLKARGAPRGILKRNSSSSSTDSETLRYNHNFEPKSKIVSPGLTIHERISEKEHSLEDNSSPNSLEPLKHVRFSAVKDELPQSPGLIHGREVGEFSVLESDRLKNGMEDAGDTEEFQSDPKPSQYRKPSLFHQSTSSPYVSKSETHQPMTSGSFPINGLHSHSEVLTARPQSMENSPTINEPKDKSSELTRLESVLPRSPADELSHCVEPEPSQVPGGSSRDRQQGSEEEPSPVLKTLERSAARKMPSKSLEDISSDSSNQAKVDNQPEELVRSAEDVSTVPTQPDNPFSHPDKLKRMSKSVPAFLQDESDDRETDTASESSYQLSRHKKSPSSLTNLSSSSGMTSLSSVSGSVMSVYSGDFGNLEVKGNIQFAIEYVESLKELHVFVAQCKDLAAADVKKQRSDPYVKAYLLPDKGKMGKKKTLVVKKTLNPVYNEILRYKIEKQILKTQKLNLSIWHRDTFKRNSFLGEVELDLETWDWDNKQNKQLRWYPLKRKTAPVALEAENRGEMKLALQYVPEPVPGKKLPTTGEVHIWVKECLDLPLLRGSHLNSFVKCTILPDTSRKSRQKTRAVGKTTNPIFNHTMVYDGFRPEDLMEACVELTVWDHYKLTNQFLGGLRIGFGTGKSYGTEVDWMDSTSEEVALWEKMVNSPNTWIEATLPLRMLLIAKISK

Sequence of UniProt Q9BV36 (Q9BV36 whole entry): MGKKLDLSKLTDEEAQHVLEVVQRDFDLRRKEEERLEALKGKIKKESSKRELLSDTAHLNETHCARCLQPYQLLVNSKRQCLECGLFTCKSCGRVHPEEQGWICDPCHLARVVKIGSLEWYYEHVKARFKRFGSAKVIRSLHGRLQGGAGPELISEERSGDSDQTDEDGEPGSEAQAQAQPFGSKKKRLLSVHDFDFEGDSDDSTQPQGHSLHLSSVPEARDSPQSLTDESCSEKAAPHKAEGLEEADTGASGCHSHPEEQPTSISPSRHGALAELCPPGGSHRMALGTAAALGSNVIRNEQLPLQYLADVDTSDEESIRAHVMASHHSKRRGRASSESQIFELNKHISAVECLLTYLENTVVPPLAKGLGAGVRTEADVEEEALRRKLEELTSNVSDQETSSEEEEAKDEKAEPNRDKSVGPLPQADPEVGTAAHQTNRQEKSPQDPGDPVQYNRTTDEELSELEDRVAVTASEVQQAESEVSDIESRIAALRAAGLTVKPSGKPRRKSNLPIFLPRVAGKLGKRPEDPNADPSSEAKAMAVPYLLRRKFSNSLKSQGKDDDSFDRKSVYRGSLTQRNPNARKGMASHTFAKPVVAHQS

As for RAB27A (from UniProt P51159), the figures for the Kd in data set [1] and in data set [2] were 200 nM and 20 nM, respectively.

In general, Kd refers to the constant that tells how readily two partners part at equilibrium.
